Measured values: article PMC5686111

Target: protein A-derived Z-domain of the mAbSelect SuRe resin
Experiment: protein A (Z-domain) affinity chromatography, pH-gradient elution

## human IgG1 T307P, L309Q (antibody)
  elution pH from the protein A (Z-domain) column: 4.48 pH
